{"source": "paper PMC6009595", "molecular_target": "H-NS (Salmonella enterica serovar Typhimurium …, UniProt A0A0F6B244 1-137)", "sequence (A0A0F6B244 whole entry)": "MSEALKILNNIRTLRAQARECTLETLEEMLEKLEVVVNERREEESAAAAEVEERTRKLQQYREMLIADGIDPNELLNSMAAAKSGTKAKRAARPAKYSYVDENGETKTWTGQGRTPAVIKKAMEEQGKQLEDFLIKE", "experiment": "fluorescence anisotropy", "data": [{"binder": "36 bp pagC high-affinity H-NS site (HAhnsBS) (dsDNA) DNA 1: ATGGGTTTTATAGCGAAATAGACTTTTTTATCGCGT DNA 2: ACGCGATAAAAAAGTCTATTTCGCTATAAAACCCAT", "values": [{"measurement": "binding result", "result": "binds"}]}]}
